# According to patent US20150132277A1 (Scripps Research, published 2015):
# Numbering of substitutions follows the chain as printed. Names may count otherwise.
# B1: native human KRS (70-584) with T285C mutation (enzyme)
# chain: not shown
# modifications: disulfide between Cys 285 of the two subunits in the absence of DTT
# notes: also called native KRST285C
# B2: wild-type (WT) human mini-YRS (N-terminal fragment of human tyrosyl-tRNA synthetase) (enzyme)
# chain: MGDAPSPEEKLHLITRNLQEVLGEEKLKEILKERELKIYWGTATTGKPHVAYFVPMSKIADFLKAGCEVTILFADLHAYLDNMKAPWELLELRVSYYENVIKAMLESIGVPLEKLKFIKGTDYQLSKEYTLDVYRLSSVVTQHDSKKAGAEVVKQVEHPLLSGLLYPGLQALDEEYLKVDAQFGGIDQRKIFTFAEKYLPALGYSKRVHLMNPMVPGLTGSKMSSSEEESKIDLLDRKEDVKKKLKKAFCEPGNVENNGVLSFIKHVLFPLKSEFVILRDEKWGGNKTYTAYVDLEKDFAAEVVHPGDLKNSVEVALNKLLDPIREKFNTPALKKLASAAYPDPSKQKPMAKGPAKNSEPEEVI
# notes: In monomer-dimer equilibrium; also called WT mini-YRS; mini-tyrosyl tRNA synthetase
# B3: Flavo-KRS (70-584) with T285C mutation (enzyme)
# chain: SVDPNQYYKIRSQAIHQLKVNGEDPYPHKFHVDISLTDFIQKYSHLQPGDHLTDITLKVAGRIHAKRASGGKLIFYDLRGEGVKLQVMANSRNYKSEEEFIHINNKLRRGDIIGVQGNPGKTKKGELSIIPYEITLLSPCLHMLPHLHFGLKDKETRYRQRYLDLILNDFVRQKFIIRSKIITYIRSFLDELGFLEIETPMMNIIPGGAVAKPFICYHNELDMNLYMRIAPELYHKMLVVGNMGLFYGSSTCYTEMAAEKIRDIIGPELVTLHNLKDDSPKLMEQYDVLILGIPTWDFGEIQEDWEAVWDQLDDLNLEGKIVALYGLGDQLGYGEWFLDALGMLHDKLSTKGVKFVGYWPTEGYEFTSPKPVIADGQLFVGLALDETNQYDLSDERIQSWCEQILNEMARVYEIGRQFRNEGIDLTHNPEFTTCEFYMAYADYHDLMEITEKMVSGMVKHITGSYKVTYHPDGPEGQAYDVDFTPPFRRINMVEELEKALGMKLPETNLFETEETRKILDDICVAKAVECPPPRTTARLLDKLVGEFLEVTCINPTFICDHPQIMSPLAKWHRSKEGLTERFELFVMKKEICNAYTELNDPMRQRQLFEEQAKAKAAGDDEAMFIDENFCTALEYGLPPTAGWGMGIDRVAMFLTDSNNIKEVLLFPAMKPEDKKENVATAGHHHHHH
# notes: also called T285C Flavo-KRS
# B4: F260EY201EI278E T2-WRS variant (stable monomer) (enzyme)
# chain: SAKGIDYDKLIVRFGSSKIDKELINRIERATGQRPHHFLRRGIFFSHRDMNQVLDAYENKKPFYLYTGRGPSSEAMHVGHLIPFIFTKWLQDVFNVPLVIQMTDDEKELWKDLTLDQAYSYAVENAKDIIACGFDINKTFIFSDLDYMGMSSGFYKNVVKIQKHVTENQVKGIFGFTDSDCIGKESFPAIQAAPSFSNSFPQIFRDRTDIQCLIPCAIDQDPYFRMTRDVAPRIGYPKPALLHSTFFPALQGAQTKMSASDPNSSIFLTDTAKQIKTKVNKHAFSGGRDTIEEHRQFGGNCDVDVSFMYLTFFLEDDDKLEQIRKDYTSGAMLTGELKKALIEVLQPLIAEHQARRKEVTDEIVKEFMTPRKLSFDFQHHHHHH
# notes: Residue numbers of the mutations are those of full-length WRS; also called monomer T2-WRS; T2-WRS (F260EY201EI278E)
# B5: human T2-WRS (residues 94-471 of full-length tryptophanyl-tRNA synthetase) with C-terminal His6 tag (enzyme)
# chain: B4 chain with E108Y, E167F, E185I
# notes: In monomer-dimer equilibrium; also called WT T2-WRS; WT T2-TrpRS
# B6: VE-Cadherin extracellular domain EC1 (residues 48-155 of full-length VE-Cadherin), tag-free (other)
# chain: DWIWNQMHIDEEKNTSLPHHVGKIKSSVSRKNAKYLLKGEYVGKVFRVDAETGDVFAIERLDRENISEYHLTAVIVDKDTGENLETPSSFTIKVHDVNDNWPVFTHRL
# notes: Expressed as a GST fusion; also called VE-EC1; VE-Cadherin EC1 domain
# B7: non-associating monomeric Δ159-161 variant of mini-YRS (enzyme)
# chain: MGDAPSPEEKLHLITRNLQEVLGEEKLKEILKERELKIYWGTATTGKPHVAYFVPMSKIADFLKAGCEVTILFADLHAYLDNMKAPWELLELRVSYYENVIKAMLESIGVPLEKLKFIKGTDYQLSKEYTLDVYRLSSVVTQHDSKKAGAEVVKQVEHSGLLYPGLQALDEEYLKVDAQFGGIDQRKIFTFAEKYLPALGYSKRVHLMNPMVPGLTGSKMSSSEEESKIDLLDRKEDVKKKLKKAFCEPGNVENNGVLSFIKHVLFPLKSEFVILRDEKWGGNKTYTAYVDLEKDFAAEVVHPGDLKNSVEVALNKLLDPIREKFNTPALKKLASAAYPDPSKQKPMAKGPAKNSEPEEVI
# notes: also called the monomer
# B8: truncated human KRS (residues 70-584 of full-length lysyl-tRNA synthetase) with C-terminal 6xHis tag (enzyme)
# chain: not shown
# notes: Homodimer (alpha2) in solution; also called native human KRS (70-584); native KRS
# Key:
# [1] = biological target: the molecule itself; assay: disulfide crosslinking across the dimer interface, SDS-PAGE with and without DTT
# Protocol: All proteins were expressed and purified as mentioned above, except that no beta-mercaptoethanol was added. The purified proteins were diluted to 1 mg/ml in 25 mM HEPES (pH7.5, 150 mM NaCl) and incubated for 15 minutes at 4° C. with or without 10 mM DTT (dithiothreitol). Proteins samples (10 μl) were mixed with an equal amount of 2× loading buffer (without reducing reagent) and boiled for 1 min before loading onto a SDS-PAGE gel.
# [2] = biological target: the molecule itself; assay: gel chromatography with immunoblotting of fractions (YRS polyclonal antibody); dimer-monomer equilibrium
# Protocol: (§1) Each protein sample (200 μl of 20 μM) was injected to Superdex 200 chromatography column (GE Healthcare, 10/300GL) in PBS containing 5 mM β-mercaptoethanol. The column was then calibrated by standard proteins. […] To determine the dissociation constant for dimer-monomer equilibrium, gel chromatography was carried out as a function of protein concentration.
# [3] = biological target: the molecule itself; assay: gel chromatography; dimer-monomer equilibrium, reference Δ159-161 mini-YRS
# Protocol: as §1
# [4] = biological target: B6; assay: SPR (Biacore), T2-WRS variant amine-coupled to CM5 chip, EC1 domain in flow, 0.1 mM ZnCl2, kinetic titration fitting; monomer F260EY201EI278E T2-WRS on the chip, EC1 in flow
# [5] = biological target: the molecule itself; assay: size exclusion chromatography, 100 nM to 10 uM; percentage of dimers against concentration; dimer-monomer dissociation constant
# [6] = biological target: the molecule itself; assay: size exclusion chromatography, percent dimer plotted against protein concentration; dimer-monomer dissociation constant
# [7] = biological target: B5; assay: SPR (Biacore), T2-WRS amine-coupled to CM5 chip, EC1 domain in flow, 0.1 mM ZnCl2, kinetic titration fitting; WT T2-WRS on the chip, EC1 in flow
# [8] = biological target: the molecule itself; assay: gel filtration chromatography as a function of protein concentration; dimer-monomer equilibrium
# Protocol: as §1
# [9] = biological target: the molecule itself; assay: Superdex 200 gel filtration, 0.5-2 µM, self-association
# Protocol: E. coli Flavodoxin was inserted at the position of G310 on the peripheral region of the KRS dimer interface. The linker was kept short to reduce the potential structural flexibility. […] All proteins were loaded at a concentration range of 0.5-2 μM. […] BSA is bovine serum albumin.
# The peak fractions were analyzed by SDS-PAGE and visualized by Coomassie blue staining.
binder,measurement,setting,value
B1,binding result,[1],binds
B2,Kd,[2],~100 nM
same,fold lower dimer-monomer dissociation constant than Δ159-161,[3],~1000 fold
B3,binding result,[1],no binding
B4,Kd,[4],1340 nM
B5,Kd,[5],437 nM
same,Kd,[6],472 nM
B6,Kd,[7],1520 nM
B7,Kd,[8],~100000 nM
B8,binding result,[9],binds
